These results are taken from article PMC6122992.

For this assay, the target named is rhodamine-labeled cyclic β-hairpin peptide (human). Kind of assay: fluorescence polarisation.

Turning to “recombinant Ssa1 (from UniProt P10591 1-642) (natural protein)”, the Kd turned out to be 3.5 µM. Substance “recombinant Ydj1 (from UniProt P25491 1-409) (natural protein)” came in with a Kd of 46.8 µM.
